The data set deals with the molecule itself. Description: pair correlation of molecular brightness (pCOMB); pair correlation of brightness fluctuations along a 64-pixel confocal line scan from cytoplasm to nucleus of live HeLa cells; amplitude calibrated against free GFP, YFP or mCherry; cells stimulated with 10 nM oncostatin M for 15 min.

B1: STAT3-DB-GFP (natural protein, UniProt P40763 1-770, looked up)
chain: MAQWNQLQQLDTRYLEQLHQLYSDSFPMELRQFLAPWIESQDWAYAASKESHATLVFHNLLGEIDQQYSRFLQESNVLYQHNLRRIKQFLQSRYLEKPMEIARIVARCLWEESRLLQTAATAAQQGGQANHPTAAVVTEKQQMLEQHLQDVRKRVQDLEQKMKVVENLQDDFDFNYKTLKSQGDMQDLNGNNQSVTRQKMQQLEQMLTALDQMRRSIVSELAGLLSAMEYVQKTLTDEELADWKRRQQIACIGGPPNICLDRLENWITSLAESQLQTRQQIKKLEELQQKVSYKGDPIVQHRPMLEERIVELFRNLMKSAFVVERQPCMPMHPDRPLVIKTGVQFTTKVRLLVKFPELNYQLKIKVCIDKDSGDVAALRGSRKFNILGTNTKVMNMEESNNGSLSAEFKHLTLREQRCGNGGRANCDASLIVTAALHLITFETEVYHQGLKIDLETHSLPVVVISNICQMPNAWASILWYNMLTNNPKNVNFFTKPPIGTWDQVAEVLSWQFSSTTKRGLSIEQLTTLAEKLLGPGVNYSGCQITWAKFCKENMAGKGFSFWVWLDNIIDLVKKYILALWNEGYIMGFISKERERAILSTKPPGTFLLRFSESSKEGGVTFTWVEKDISGKTQIQSVEPYTKQQLNNMSFAEIIMGYKIMDATNILVSPLVYLYPDIPKEEAFGKYCRPESQEHPEADPGSAAPYLKTKFICVTPTTCSNTIDLPMSPRTLDSLMQFGNNGEGAEPSAGGQFESLTFDMELTSECATSPM
notes: cloned by Ivan Ng in the laboratory of Marie Bogoyevitch and David Jans; source: HeLa cells, transiently transfected, in live cells
Consider B1, for which the stoichiometry N – broadly, the number of molecules, sites or subunits per partner or assembly – amounted to 2.

The record behind these values is publication PMC4820838, “Quantifying the dynamics of the oligomeric transcription factor STAT3 by pair correlation of molecular brightness” (Nature Communications, 2016).
